{
  "source": "paper doi:10.1101/2020.01.12.903617",
  "about": "“The peptide sensor motif stabilizes the outward-facing conformation of TmrAB” (bioRxiv, 2020)",
  "binders": {"B1": {"name": "TmrB G116A/V275C (chain of the double cysteine mutant of G116A^TmrB TmrAB) (natural protein, Thermus thermophilus)", "chain": "MTGRSAAPLLRRLWPYVGRYRWRYLWAVLAGLVSIFFFVLTPYFLRLAVDAVQAGRGFGVYALAIVASAALSGLLSYAMRRLAVVASRQVEYDLRRDLLHHLLTLDRDFYHKHRVADLMNRLNTDLSAVREMVGPGILMGSRLSFLVLLAFLSMYAVNARLAFYLTLILPGIFLAMRFLLRLIDRRYREAQEVFDRISTLAQEAFSGIRVVKGYALERRMVAWFQDLNRLYVEKSLALARVEGPLHALLGFLMGFAFLTVLWAGGAMVVRGELSCGELVQFNAYLAQLTWPILGLGWVMALYQRGLTSLRRLFELLDEKPAIRDEDPLPLALEDLSGEVRFEGVGLKRDGRWLLRGLTLTIPEGMTLGITGRTGSGKSLLAALVPRLLDPSEGRVYVGGHEARRIPLAVLRKAVGVAPQEPFLFSETILENIAFGLDEVDRERVEWAARLAGIHEEILAFPKGYETVLGERGITLSGGQRQRVALARALAKRPKILILDDALSAVDAETEARILQGLKTVLGKQTTLLISHRTAALRHADWIIVLDGGRIVEEGTHESLLQAGGLYAEMDRLQKEVEA", "notes": "TmrB, Thermus thermophilus, the chain of TmrAB with the non-canonical Walker B motif; Co-expressed with TmrA C416S/L290C; The cloning paragraph prints G116A^TmrA, all other places G116A^TmrB; also called PSM glycine mutant"}, "B2": {"name": "TmrB V275C (chain of the double cysteine mutant of cysteine-less WT TmrAB) (natural protein, Thermus thermophilus)", "chain": "B1 chain with A116G", "notes": "TmrB, Thermus thermophilus, the chain of TmrAB with the non-canonical Walker B motif; Co-expressed with the TmrA chain; also called V275C^TmrB"}},
  "key": {"[1]": {"biological_target": "T1, TmrA C416S/L290C (chain of the double cysteine mutant of cysteine-less WT TmrAB) (Thermus thermophilus, UniProt Q72J05 1-600, C416S | L290C)", "T1 construct": "TmrA, Thermus thermophilus, the chain of TmrAB with the canonical Walker B motif; Cysteine-less template made by GenScript; co-expressed with the TmrB chain; also called C416S^TmrA/L290C^TmrA", "T1 sequence": "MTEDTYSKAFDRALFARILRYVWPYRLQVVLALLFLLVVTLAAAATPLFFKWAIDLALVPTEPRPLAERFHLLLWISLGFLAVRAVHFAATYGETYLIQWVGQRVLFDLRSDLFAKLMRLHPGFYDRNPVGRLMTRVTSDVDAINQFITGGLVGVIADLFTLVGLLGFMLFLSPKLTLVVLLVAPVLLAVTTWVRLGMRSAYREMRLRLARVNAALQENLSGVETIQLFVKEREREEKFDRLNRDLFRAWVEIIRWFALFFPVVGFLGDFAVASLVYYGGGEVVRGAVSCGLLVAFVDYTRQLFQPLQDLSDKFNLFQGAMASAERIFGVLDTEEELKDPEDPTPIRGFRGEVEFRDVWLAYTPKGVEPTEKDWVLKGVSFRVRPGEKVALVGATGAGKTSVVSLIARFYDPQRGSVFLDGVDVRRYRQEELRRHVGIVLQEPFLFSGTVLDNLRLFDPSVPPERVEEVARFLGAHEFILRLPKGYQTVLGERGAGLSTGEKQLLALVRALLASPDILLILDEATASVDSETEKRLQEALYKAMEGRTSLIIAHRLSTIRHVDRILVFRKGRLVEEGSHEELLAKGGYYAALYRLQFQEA", "assay": "cross-linking; disulfide cross-linking of engineered cysteines: 1 uM TmrAB double cysteine mutants in SEC buffer, 0.5 mM copper phenanthroline, 68°C, without or with 5 mM ATP, 10 mM MgCl2 and/or 8 mM sodium orthovanadate; SDS-PAGE, ~150 kDa band of the cross-linked dimer", "details": "both partners purified"}, "[2]": {"biological_target": "T2, TmrA G131A/C416S/L290C (chain of the double cysteine mutant of G131A^TmrA TmrAB) (Thermus thermophilus, UniProt Q72J05 1-600, G131A | C416S | L290C)", "T2 construct": "TmrA, Thermus thermophilus, the chain of TmrAB with the canonical Walker B motif; Cysteine-less template made by GenScript; co-expressed with TmrB V275C; also called PSM glycine mutant", "T2 sequence": "T1 sequence with G131A", "assay": "cross-linking; disulfide cross-linking of engineered cysteines: 1 uM TmrAB double cysteine mutants in SEC buffer, 0.5 mM copper phenanthroline, 68°C, without or with 5 mM ATP, 10 mM MgCl2 and/or 8 mM sodium orthovanadate; SDS-PAGE, ~150 kDa band of the cross-linked dimer", "details": "both partners purified"}},
  "note": "Numbering of substitutions follows the chain as printed. Names and notes keep the numbering of the source.",
  "data": [
    {"binder": "B1", "values": [
      {"measurement": "binding result", "setting": "[1]", "result": "binds"}
    ]},
    {"binder": "B2", "values": [
      {"measurement": "binding result", "setting": "[1]", "result": "binds"},
      {"measurement": "binding result", "setting": "[2]", "result": "binds"}
    ]}
  ]
}
